Legend:
[1] = molecular target: T1, CD20 on cells (Raji cells, human B cells) (human, UniProt P11836 1-297); experiment: binding to Raji cells (CD20+/CD47+), FIG. 17
T1 construct: whole, on cells; The cells that carry it (Raji, B cells) also carry CD47
T1 sequence (looked up): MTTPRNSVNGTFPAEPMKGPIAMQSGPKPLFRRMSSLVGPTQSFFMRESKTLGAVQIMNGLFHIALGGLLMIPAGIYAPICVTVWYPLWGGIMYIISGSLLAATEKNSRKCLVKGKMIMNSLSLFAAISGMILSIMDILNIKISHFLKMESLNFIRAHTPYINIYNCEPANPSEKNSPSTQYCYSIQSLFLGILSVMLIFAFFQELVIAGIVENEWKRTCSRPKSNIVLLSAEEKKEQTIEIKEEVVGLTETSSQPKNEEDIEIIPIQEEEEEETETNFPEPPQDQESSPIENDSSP

[2] = molecular target: T2, human CD47 expressed on the cell surface (human, UniProt Q08722 19-323); experiment: cell-based or functional assay
[3] = molecular target: T2, human CD47 expressed on the cell surface; experiment: blocking of human SIRPα binding to OCI-Ly3 cells (FIG. 21)

B1: rituximab (antibody, human IgG1, kappa, V domains shown)
VH: QVQLQQPGAELVKPGASVKMSCKASGYTFTSYNMHWVKQTPGRGLEWIGAIYPGNGDTSYNQKFKGKATLTADKSSSTAYMQLSSLTSEDSAVYYCARSTYYGGDWYFNVWGAGTTVTVSA
VL: QIVLSQSPAILSASPGEKVTMTCRASSSVSYIHWFQQKPGSSPKPWIYATSNLASGVPVRFSGSGSGTSYSLTISRVEAEDAATYYCQQWTSNPPTFGGGTKLEIKR
notes: Anti-CD20 antibody, bivalent to CD20; also called rituxan
How did the EC50 [1] turn out when B1 was run?
Its EC50 is about 1.1 nM.

B2: TPP-1360 (bispecific antibody, human IgG1, kappa)
light 1: NIQMTQSPSSLSASVGDRVTITCRASQDIHRYLSWFQQKPGKVPKHLIYRESRFVDGVPSRFSGSGSGTEFTLTISSLQPEDFATYYCLQYDEFPYTFGGGTKVEIKRTVAAPSVFIFPPSDEELKSGTASVVCWLNNFYPREAKVQWKVDNALQSGNSEESVTEQDSKDSTYSLSSTLELSKADYEKHKVYACEVTHQGLSSPVTKSFNRGEC
heavy 1: QMQLVQSGAEVKKPGSSVKVSCKASGFNIKDYYLHWVRQAPGKGLEWMGWIDPDQGDTYYAQKFQGRVTITRDRSTSTAYMELRSLRAEDTAVYYCNAAYGESSYPMDYWGQGTLVTVSSASTKGPSVFPLAPSSKSTSGGTAALGCLVKDYFPEPVTVSWNSGALTSGVHTFPAVLKSSGLYSLSSVVTVPSSSLGTQTYICNVNHKPSNTKVDKKVEPKSCDKTHTCPPCPAPELLGGPSVFLFPPKPKDTLMISRTPEVTCVVVDVSHEDPEVKFNWYVDGVEVHNAKTKPREEQYNSTYRVVSVLTVLHQDWLNGKEYKCKVSNKALPAPIEKTISKAKGQPREPQVYVLPPSREEMTKNQVSLLCLVKGFYPSDIAVEWESNGQPENNYLTWPPVLDSDGSFFLYSKLTVDKSRWQQGNVFSCSVMHEALHNHYTQKSLSLSPGK
light 2: QIVLSQSPAILSASPGEKVTMTCRASSSVSYIHWFQQKPGSSPKPWIYATSNLASGVPVRFSGSGSGTSYSLTISRVEAEDAATYYCQQWTSNPPTFGGGTKLEIKRTVAAPSVAIFPPSDERLKSGTASVVCVLNNFYPREAKVQWKVDNALQSGNSQESVTEQDSKDSTYSLSSRLTLSKADYEKHKVYACEVTHQGLSSPVTKSFNRGEC
heavy 2: QVQLQQPGAELVKPGASVKMSCKASGYTFTSYNMHWVKQTPGRGLEWIGAIYPGNGDTSYNQKFKGKATLTADKSSSTAYMQLSSLTSEDSAVYYCARSTYYGGDWYFNVWGAGTTVTVSAASTKGPSVFPLAPSSKSTSGGTAWLGCEVTDYFPEPVTVSWNSGALTSGVHTFPAVLESSGLYSLSSVVTVPSSSLGTQTYICNVNHKPSNTKVDKKVEPKSCDKTHTCPPCPAPELLGGPSVFLFPPKPKDTLMISRTPEVTCVVVDVSHEDPEVKFNWYVDGVEVHNAKTKPREEQYNSTYRVVSVLTVLHQDWLNGKEYKCKVSNKALPAPIEKTISKAKGQPREPQVYVYPPSREEMTKNQVSLTCLVKGFYPSDIAVEWESNGQPENNYKTTPPVLDSDGSFALVSKLTVDKSRWQQGNVFSCSVMHEALHNHYTQKSLSLSPGK
Which results are given for B2?
EC50, activation of macrophage phagocytosis of OCI-Ly3 cells [2]: 1.4 nM; EC50, activation of macrophage phagocytosis of Raji cells [2]: 1.8 nM

B3: TPP-23 (408_437 Fab with IgG1) (antibody, V domains shown)
VH: QMQLVQSGAEVKKPGSSVKVSCKASGFNIKDYYLHWVRQAPGKGLEWMGWIDPDQGDTEYAQKFQGRVTITRDRSTSTAYMELRSLRAEDTAVYYCNAAYGSSSYPMDYWGQGTLVTVSS
VL: NIQMTQSPSSLSASVGDRVTITCRASQDIHRYLSWFQQKPGKVPKHLIYRANRLVSGVPSRFSGSGSGTEFTLTISSLQPEDFATYYCLQYDEFPYTFGGGTKVEIK
notes: also called parental CD47 mAb
With B3 as the binder, how does the EC50 [3] read?
Its EC50 is 0.11 nM.
